Assay: soluble fraction after stress (log2 fold change); higher = more stays soluble; pooled small domains, quantitative proteomics
Conditions: stress: 50 degC
Outline: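 The stress applied to every library was 50°C. These custom libraries of small protein domains were pooled and measured at high throughput with quantitative proteomics as the read-out. Aggregation propensity is expressed as the base-two logarithm of the fold change in how much of each protein remains soluble. The higher the value, the more of that protein stays in solution.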

| Sequence | soluble fraction (log2) |
| --- | --- |
| HMGSYIGEAKAKEIALSHAGVSASQATFVRSQFEYDDGRAVYDVDFWSGNKEYDYEIDAKSGTIVSYDFD | -0.398 |
| HMNTVAKELATQATQAKKRAFLDAYAETGIIKRAAEIAGIERKSHYLWLEKDPEYVEAFKSAGEQ | 0.301 |
| HMKTRNISGNHEAVWQAVRSRTQAGHPTTRAVIMDDLKAQGLNTQKFSRWLKKLVDDGSVYMDGDTIIMGK | -0.186 |
| HMKDYQGEISVVASGERIDVYLFNYFNLFSRTKIKNHIKNGNILVNENIISPSYILKQNDKIAFNLGAPY | -2.39 |
| HMVVANTAIKSELQNIVANENKQAPLSDQKIVDQLKQAGFDISRRTVVKYRDALGIPTSRNRKR | -0.131 |
| HMKRGDAYASEMIARLKEAHLIVMEGTLYPLLTRLKNDGLLSYRWEESTQGPPRKYYSITPVG | 0.424 |
| HMDGVPPAGSRIRLTVSTQVGDKEFEGTLVPPAGVDLLTLKLANGYNLSHSIADVREVVLIEEGLQGEEP | -0.0515 |
| HMTKGVQMFAEQLKRTRQSRHYSQAEIASKLGVTQQAIAKWETGVSTPSPTSISKLSDILGISTDVLLKGA | 0.0763 |
| HMSETQDQTTIEIEDMITVGTLAERLSIPVSTLIGELMKNGVMATVNEKIDFDTAQIIVGELKLPIELSKK | 0.201 |
| HMDAVSYTQFMQDAKAGRIKKVIVHQSGILDVTTTEGRRFNLTSPGDLWMVGDLVKDGVDVVGAP | -0.0657 |
| HMNHSITLTERKNLLITGVKKIENFDKEEFLIETTMGFLVVKGDGLELIKLDTISGNVSIKGIVNGFTYID | 0.223 |
| HMTTIKLTQEDVEKIKSLPKRTFLIGNLQQTGLYDEKTRRFYYLDANGEWNGRLAIINTPPPPPPPP | 0.199 |
| HMSPFAHHLHELRMRHGIRQNELAELIGYDQTYISALEVGLKGPPTPEFVDKLVEGLALSRTEEAALRSAA | -0.482 |
| HMEDEVSSSAAYQALLEKGVSKTLARSWVIDYGEAYVLDKVDLTTSQAARGKIKSSTAGFLKAAIEEDFHN | -0.244 |
| HMNDRLFQILYLLLEKGTMTAPELSRALEVSVRTIYRDIDALSLAGVPVYATQGKNGGVSLLPNY | -1.24 |
| HMIQMRVKVPKNIAGGSLMGAHHFVKSALARTNPGGSTSNYKIQATDGTPLTLGDLTARQYDEVLIISG | 0.0101 |
| HMAYLTGFHAIEELIRAGKAKGPLLVANAGPRARTIMSLATDNKIRIDRLGEHELNRLAPGNRGIALYVE | 0.13 |
| HMHQPPDLDDFEAFVGRVKPALLQALVATYGPVDGREATVDALSWAWEHWDRLADVDHPVGYLYRV | 0.0368 |
| HMPAERLSMRKIYEILRLKYGHGLSNREVALSVSVSRSTVADYLLRAQAAGLSWPLPDGLDETGLEQRLFP | -2.02 |
| HMSSFSESFHKALNNLDDKHKSVFSLRHFEGFSMKEIAETLNINEGTVKSRLFYATKTLAGALKEF | -2.74 |
| HMIDFDEQGNLWVHEMGPRHGDELNLIEKARNYGYPTVSQGDHYSGVKISNHEDIPIFKSPEKAWVPAISP | -0.0541 |
| HMAIKNKNEQLEAIIKFADLRGEFKTADIEELLSIKSSRARLLISELVKIGKLESIGSNRNRRYHIK | -0.52 |
| HMEWVVVPDVRRQLLPEAQRRVNKARLRLEVAGGWPAEPLLAMVVDQKPGPETRVPLNSIVVVVVRNLP | -0.0473 |
| HMYSQIGYGSSGSDVRKLQEILNGKGYNLSVDGQFGAKTKSAVRDYQSKNGLSVDGIVGVNTWGKLT | -0.0169 |
| HMSTQVPDVKERSQEEARSILESAGFKVTPAVKTEDSADIAKDMVTKTDPAAGQSVPKGTTITIYVSS | 0.149 |

| Sequence | soluble fraction (log2) |
| --- | --- |
| HMEDYYKILGVQSNSNPDDIKKAYRKLSLKHHPDRGGDASEFKKINEAYQTLGTPEKRKMYDMQQNN | -0.0117 |
| HMKTLDATQRLKLNGEGIIVFNFGKYVDQPVVEIFKKERGYFAWMMSKDFSQQVKNIITKIHNEEILGK | -2.76 |
| HMRTLRENIMDYFKQQTIIQKSSVILLPMSKRQLADYFGVQRPSLFRELKKLKEEGIIEINNRTITIK | -1.27 |
| HMLEINTIIGNNLKKIRQEKKLTLDELAGITGVSKGMLSQIEKGTTNPTINTIWKISNGLNVPYTYLLEDD | 0.183 |
| HMLQGKVSFFNDEKGYGFIKDNNSKDSYFVHINKVEGEIAEGDKVTFELEKGPKGLVAANVKR | 0.184 |
| HMSGTYIVTVQANTLDIYKSMTSNDTIGKANKGDVFQILEDMGGGYAKVSYNDVEGYISIKDGDTSIDEM | -0.23 |
| HMRETELPVTIISAGRILAENLHLAGRDGGWLEAELKRRSLTAEQVLLLTVDAAGTVYLVRKEDL | -0.0641 |
| HMDQFMLQSAWLRAVQHVMKHTDDVGTQFAEEARRMHYGEADERPIRGQATSDEARALHDEGIEVMALPI | -0.303 |
| HMAPAPDEAFAEFVRSSAPSLTRTAWLLTGDRGHAQDLVQNAYAKTLQAWGRLDAEGALAYTRRAVIT | 0.00536 |
| HMKSISMANGNVQLRINGVLASSLEVAALSPEDIKRVEYHDNPGLRYGEGIDIVLDYITIKRT | -0.384 |
| HMAFIEIMTEGDADGRGFQYPIPTYSITRDFDWSETENNKLLFEMTAKYGTPYFSNYINSDMEPSDV | -0.535 |
| HMISFHEYLTQLLDEKGLTKAQVITDSNIQKNYGYQIFDGSKTPSRDKVIAIALAMQLTLDEANRLLHLSN | -1.47 |
| HMKSLVDLEISIVKKDMNYFVLPKINGEPLLMERISASEYKDFQLGKLSKEDIFQKHYPDYSEENIKNGRG | 0.145 |
| HMKEVKAPMPGMVLRVEVAPGQEVQEGDPLLVLEAMKMENNLKSPASGTIKSVHVEAGKAVEKGAVLVVF | -0.0671 |
| HMKFTPPTLEQIKNEMLLKTDEYNADIQSDRFFTYYDSNGWMVGKNKMKKFLVSLVAVFAATSA | -0.446 |
| HMNKPTSMYKLRLLLKHYHAGASKRWMADVLDISRSTLNVYLARIESLNLAFEEWEALSDLEVSRLLINP | -3.05 |
| HMGSREVPFSDFISKVESGSVLEVVLRGRQVEGLTDANERFQTQIPNYPALFEILERNQVRTRVEPT | 0.0852 |
| HMFTDAEIKQFAAAAVEVTKIQQDSTISAADKQPKMLAVVQSSGLPPEKFNQIGQAAAADPALQQRIQA | 0.156 |
| HMNGEAQTMYVTARTLNVRKGPGTSYAKAGTLSRGTAVQVVGFSGNWAKLSNGYYVSTSYLAKI | -1.32 |
| HMSELTKEIGKRIHDFRKSRGLNQEELARLIYKSKATLSKYEKGEIAIDLDTLKQLALALHVRMEQLLPPT | -0.0472 |
| HMTDFDWSLFTQQLKRFNLFLSYDDREKLQTFQTLYGLNELDLAEYVAKASAGEKNGLNFNYLRQLINKEK | -0.465 |
| HMTKINAPMPGNILDVKVNVGDHVEANQLVLMLEAMKMENEIFTPVAGTVVGVHVKKGDSVNSDDLLISI | -0.228 |
| HMLDSNILTLIKELKIRHHFTATQTHQLEKVIQQAHALGLDNSEIRSLANSSPSAKSLINDLNQKLEPLRL | -0.398 |
| HMLTLDEKRRLQIMRVQVALTSLGLYNGRVDGVLNAETKLGLEFFQDLKGLPKSGTMTTPTLNALGVPA | -0.423 |
| HMSYKDIKEASDTGTYRDEENNIDVKWQKLFNGHNEYFDIEAYRDGERVEINNQQADRYIYLIKQEMD | 0.025 |

| Sequence | soluble fraction (log2) |
| --- | --- |
| HMKRVVFFNGISWYHRTKELLDDMTTKYGKKGGFATPEEAEKSYWEYEERYKDRQRELQVAYLKN | -0.648 |
| HMTEQKNNEQQNAVNEKKQALKQLMEKGKEKGSLSYNEVNALLDKLEFTEDQKAIVYDQLHSEDIELQ | 0.193 |
| HMSAGKKSFTNSEFRRFLDALGEGLIVKHKKLGEGVVVEIRGDKAVIQFGDEQRLYELKTLYEYDLLR | -0.12 |
| HMGNLVDGINKKLTHVRDSLPEGYTLDEFKSAFQQQYPAAYDAYEGDKGKQFDKWLGNVIQSLPKK | 0.161 |
| HMISEAEGTILQLLKEADGTLPFTYKSDADEIKKVFGMSKKNFKRTLTELIEAKKIQLLDDAIVL | -0.459 |
| HMEVKVSGHLEAIGGVYHMKLSWIDDAGKRRRKSKSTGLAERGNKKRANDMLIDFMREQEAEIAASGD | -1.02 |
| HMKKKLPRYLQEQKYGNGMVFYRYNPTARYIDEGIVTRTNLGSDLSIAKKKANEFNKLIDAFLQQQSE | -0.92 |
| HMVVPSNPDELKGSFSLAEVASGYGLEVAAILEKAGWPADTDPNVKMRDAANAIGRDSTDIRNAVKALLKS | -0.0505 |
| HMKELLQEMIMDILRAIASPNIDIKRKTLDLVLDLITPRNIDNVTGMLKTEVVKSQSENTSDVG | -0.623 |
| HMVQIQDIAFSEFLNELEKGNILDVNIKGDLINGNMLDGKKFKTYAPYDPSLVEKLSKQNVTINVEPVN | 0.0938 |
| HMGTSFKITFYKDAFQVDDGPIRMLNDPANQKFVDEVSQGYAPKELIGQGGKAPEIDIIDKRSENAPT | 0.128 |
| HMDGRIRFRHAALHDPDVAARLHDYLTTSLPGVRSARVNSQTGSLLLEYDPEVLDRSTLLDLAARAESLL | -0.219 |
| HMDSIDVQQKKLLTDIELGNIEGIKLFLKRHNNTINFLTIKGFHPLVYAVRNNNMEIVNLFLTT | 0.172 |
| HMRKRLLQLVHIGKSQLGMDDETYRSLLSQQFYQNSAKNISYSELVKLVKILQQKGAKIRLPH | -1.9 |
| HMVEYFDDENLDAFIGRESDSYTEKEIEQFREILYTMNQKEVADWNRSLTIRGINIPNDLKDEMIMMI | -0.438 |
| HMDDDIKNALDVLPEQYRMTVYYADVEGLAYKEIGAIMNTPIGTVMSRIHRGRSQLRVLLAAVAADR | -0.0377 |
| HMDIHSEEYILGQNIRKYRLRLGWSQADLSNAVDIDRADISKYENGAKGIMSSTLLRKFAKALGVSMDALM | -2.76 |
| HMLPLHFIEIVSLKKIDTLTKRKELINYAFSKNEKTYIYKLAFKKKSELDNLYKEINLFNEIINIDIRHS | -0.615 |
| HMPERMLEPLLNGNEIMKVTQLQPGPKVGLIRDALLQAQISGDVTDTESAKAFVQDYAKRNI | 0.06 |
| HMTNYNTEKIIPEEQAGKRLDVVLANIFPEFSRSRLKNWIIDGFILVDGKVLRPRDFVTGGELVSIDVIV | -0.1 |
| HMIDQSVVVQYLSKLTNTPYLKTREITMGEPYMQFERGEIKFQEYVEDIRALLPGGDRIDADRLRDIWMNS | -1.22 |
| HMLMLTPGQIAQTLDVSTATVRRWSARYARHLSPNTPGKKRSYTVDDLAVLTRVRDLSATGTPLAQIDQAL | -2.02 |
| HMSGAKLLAPVTGTLLRYTVAEGTKVSEGQTVIMLESMKMELEINAHKAGVIHFTAAAGAQVAEGDSLAEI | -0.52 |
| HMFMNFAEHLMALRKQRGWSQEELGSQIGVTRQTVSKWEMGQSTPELEKLVELSRLFGMSIDQLVGL | 0.0203 |
| HMNSTRAPYLLDFEEDAAIREARRAGLVPRIARQPSGEPVGRVILQSHDYDYPMKRGDTILITISSG | -0.737 |

— the domain aggregation screens of Martell et al. (2025)
